Laboratory results reported in patent US20210230570.
Positions count from the first letter of the chain named. Names may count otherwise.

B1: FIXa-Y259F/K265T/Y345T (protein)
chain 1: YNSGKLEEFVQGNLERECMEEKCSFEEAREVFENTERTTEFWKQYVDGDQCESNPCLNGGSCKDDINSYECWCPFGFEGKNCELDVTCNIKNGRCEQFCKNSADNKVVCSCTEGYRLAENQKSCEPAVPFPCGRVSVSQTSKLTR
chain 2: VVGGEDAKPGQFPWQVVLNGKVDAFCGGSIVNEKWIVTAAHCVETGVKITVVAGEHNIEETEHTEQKRNVIRIIPHHNFNAAINTYNHDIALLELDEPLVLNSYVTPICIADKEYTNIFLKFGSGYVSGWGRVFHKGRSALVLQYLRVPLVDRATCLRSTKFTITNNMFCAGFHEGGRDSCQGDSGGPHVTEVEGTSFLTGIISWGEECAMKGKYGIYTKVSRYVNWIKEKTKLT
B2: FIXa-K228N/K247N/N249S/R318Y/R338E/R403E/E410N (protein)
chain 1: B1 chain 1
chain 2: B1 chain 2 with K48N, K67N, N69S, F79Y, T85K, R138Y, R158E, T165Y, R223E, E230N
B3: FIXa-I251S/R318Y/R338E/R403E/E410N (protein)
chain 1: B1 chain 1
chain 2: B1 chain 2 with I71S, F79Y, T85K, R138Y, R158E, T165Y, R223E, E230N
B4: FIXa-D104N/K106S/K247N/N249S/R318Y/R338E/R403E/E410N (protein)
chain 1: B1 chain 1 with D104N, K106S
chain 2: B1 chain 2 with K67N, N69S, F79Y, T85K, R138Y, R158E, T165Y, R223E, E230N
B5: FIXa-D85N/K228N/R318Y/R338E/R403E/E410N (protein)
chain 1: B1 chain 1 with D85N
chain 2: B1 chain 2 with K48N, F79Y, T85K, R138Y, R158E, T165Y, R223E, E230N
B6: FIXa-R318Y/R403E/E410N (protein)
chain 1: B1 chain 1
chain 2: B1 chain 2 with F79Y, T85K, R138Y, T165Y, R223E, E230N
B7: FIXa-R318Y/R338E/R403E/E410S (protein)
chain 1: B1 chain 1
chain 2: B1 chain 2 with F79Y, T85K, R138Y, R158E, T165Y, R223E, E230S
B8: FIXa-D104N/K106S/I251S/R318Y/R338E/E410N (protein)
chain 1: B1 chain 1 with D104N, K106S
chain 2: B1 chain 2 with I71S, F79Y, T85K, R138Y, R158E, T165Y, E230N
B9: FIXa-R318Y/R338E/E410N/T412V (protein)
chain 1: B1 chain 1
chain 2: B1 chain 2 with F79Y, T85K, R138Y, R158E, T165Y, E230N, T232V
B10: FIXa-D104N/K106S/I251S/R318Y/R338E/R403E/E410N (protein)
chain 1: B1 chain 1 with D104N, K106S
chain 2: B1 chain 2 with I71S, F79Y, T85K, R138Y, R158E, T165Y, R223E, E230N
B11: FIXa-D104N/K106S/N260S/R318Y/R338E/R403E/E410N (protein)
chain 1: B1 chain 1 with D104N, K106S
chain 2: B1 chain 2 with F79Y, N80S, T85K, R138Y, R158E, T165Y, R223E, E230N
B12: FIXa-K228N/R318Y/R338E/R403E/E410N (protein)
chain 1: B1 chain 1
chain 2: B1 chain 2 with K48N, F79Y, T85K, R138Y, R158E, T165Y, R223E, E230N
B13: FIXa-R318Y/R338E/T412A (protein)
chain 1: B1 chain 1
chain 2: B1 chain 2 with F79Y, T85K, R138Y, R158E, T165Y, T232A
B14: FIXa-R318Y/R338E/E410S (protein)
chain 1: B1 chain 1
chain 2: B1 chain 2 with F79Y, T85K, R138Y, R158E, T165Y, E230S
B15: FIXa-Y155F/I251S/R318Y/R338E/R403E/E410N (protein)
chain 1: B1 chain 1
chain 2: B1 chain 2 with I71S, F79Y, T85K, R138Y, R158E, T165Y, R223E, E230N
B16: FIXa-I251S/R318Y/R338E/E410N (protein)
chain 1: B1 chain 1
chain 2: B1 chain 2 with I71S, F79Y, T85K, R138Y, R158E, T165Y, E230N
B17: FIXa-R318Y/R338E/N346D/R403E/E410N (protein)
chain 1: B1 chain 1
chain 2: B1 chain 2 with F79Y, T85K, R138Y, R158E, T165Y, N166D, R223E, E230N
B18: FIXa-D104N/K106S/Y155F/K228N/K247N/N249S (protein)
chain 1: B1 chain 1 with D104N, K106S
chain 2: B1 chain 2 with K48N, K67N, N69S, F79Y, T85K, T165Y
B19: FIXa-Y155F/K228N/K247N/N249S (protein)
chain 1: B1 chain 1
chain 2: B1 chain 2 with K48N, K67N, N69S, F79Y, T85K, T165Y
B20: FIXa-D104N/K106S/K228N/K247N/N249S (protein)
chain 1: B1 chain 1 with D104N, K106S
chain 2: B1 chain 2 with K48N, K67N, N69S, F79Y, T85K, T165Y
B21: FIXa-Y155F/N260S/R318Y/R338E/R403E/E410N (protein)
chain 1: B1 chain 1
chain 2: B1 chain 2 with F79Y, N80S, T85K, R138Y, R158E, T165Y, R223E, E230N
B22: FIXa-N260S/R318Y/R338E/R403E/E410N (protein)
chain 1: B1 chain 1
chain 2: B1 chain 2 with F79Y, N80S, T85K, R138Y, R158E, T165Y, R223E, E230N
B23: FIXa-A103N/N105S/K247N/N249S/R318Y/R338E/R403E/E410N (protein)
chain 1: B1 chain 1 with A103N, N105S
chain 2: B1 chain 2 with K67N, N69S, F79Y, T85K, R138Y, R158E, T165Y, R223E, E230N
B24: FIXa-Y155F/K228N/R318Y/R338E/R403E/E410N (protein)
chain 1: B1 chain 1
chain 2: B1 chain 2 with K48N, F79Y, T85K, R138Y, R158E, T165Y, R223E, E230N
B25: FIXa-K247N/N249S/R318Y/R338E/E410N (protein)
chain 1: B1 chain 1
chain 2: B1 chain 2 with K67N, N69S, F79Y, T85K, R138Y, R158E, T165Y, E230N
B26: FIXa-K247N/N249S/R318Y/R338E/R403E/E410N (protein)
chain 1: B1 chain 1
chain 2: B1 chain 2 with K67N, N69S, F79Y, T85K, R138Y, R158E, T165Y, R223E, E230N
B27: FIXa-Y155F/K247N/N249S/R318Y/R338E/R403E/E410N (protein)
chain 1: B1 chain 1
chain 2: B1 chain 2 with K67N, N69S, F79Y, T85K, R138Y, R158E, T165Y, R223E, E230N
B28: FIXa-R318Y/R338E/R403E/T412A (protein)
chain 1: B1 chain 1
chain 2: B1 chain 2 with F79Y, T85K, R138Y, R158E, T165Y, R223E, T232A
B29: FIXa-Y155F/K247N/N249S/R318Y/R338E/E410N (protein)
chain 1: B1 chain 1
chain 2: B1 chain 2 with K67N, N69S, F79Y, T85K, R138Y, R158E, T165Y, E230N
B30: FIXa-R318Y/R338E/R403E/E410N/T412V (protein)
chain 1: B1 chain 1
chain 2: B1 chain 2 with F79Y, T85K, R138Y, R158E, T165Y, R223E, E230N, T232V

Assays:
[1] = biological target: plasma purified human AT-III (antithrombin III), in complex with full-length unfractionated heparin (AT-III/UFH)
[2] = biological target: antithrombin III (plasma purified human AT-III), in complex with unfractionated heparin

Chain of Factor X, P00742 (P00742 whole entry, looked up): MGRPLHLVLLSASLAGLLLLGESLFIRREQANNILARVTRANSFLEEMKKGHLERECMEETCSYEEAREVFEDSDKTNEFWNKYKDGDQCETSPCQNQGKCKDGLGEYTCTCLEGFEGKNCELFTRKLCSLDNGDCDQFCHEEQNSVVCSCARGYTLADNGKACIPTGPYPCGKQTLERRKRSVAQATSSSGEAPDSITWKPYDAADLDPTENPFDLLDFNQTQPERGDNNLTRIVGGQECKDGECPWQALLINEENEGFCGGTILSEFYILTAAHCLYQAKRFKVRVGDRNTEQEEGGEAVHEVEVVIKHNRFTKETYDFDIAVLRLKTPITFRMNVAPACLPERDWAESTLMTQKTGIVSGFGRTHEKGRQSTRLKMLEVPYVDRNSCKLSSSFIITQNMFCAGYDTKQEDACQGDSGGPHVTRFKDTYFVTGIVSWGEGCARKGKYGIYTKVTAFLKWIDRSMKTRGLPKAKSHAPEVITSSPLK
Chain of Factor X (FX), P00742 (P00742 whole entry, looked up): as above

Protein	kcat of FX activation by FIXa (Xase complex with FVIIIa, PC/PS vesicles, Ca2+) (Factor X, P00742) [s⁻¹]	K0.5-mut/K0.5-wt (against Catalyst Biosciences WT FIXa) [1]	also measured
B1	1.7	0.3	
B2	6.1	> 517	
B3	4.8	> 517	
B4	5.2	> 517	
B5	6	> 517	
B6			kcat/KM (M^-1s^-1), FX activation by FIXa in the Xase complex (Factor X (FX), P00742): 2.5e+07 M⁻¹ s⁻¹; KM (Catalytic activity of FIXa variants) (Factor X, P00742): 0.0883 µM; K0.5 [2]: 7.07 µM; K0.5-mut/K0.5-wt [2]: 366
B7	5.8	> 517	kcat/KM (Factor X (FX), P00742): 2.1e+08 M⁻¹ s⁻¹
B8		464	
B9		> 517	KM (Factor X (FX), P00742): 0.0236 µM; KM (nM); Catalytic activity of FIXa variants (KM) (Factor X (FX), P00742): 29.7 nM; kcat of FX activation by FIXa in the Xase complex (FVIIIa, PC/PS vesicles, Ca2+) (Factor X (FX), P00742): 5.2 s⁻¹; kcat/KM (Factor X (FX), P00742): 2.4e+08 M⁻¹ s⁻¹
B10	5.5	> 517	
B11		> 517	KM (nM); Catalytic activity of FIXa variants (KM) (Factor X (FX), P00742): 61.1 nM; kcat of FX activation by FIXa in the Xase complex (FVIIIa, PC/PS vesicles, Ca2+) (Factor X (FX), P00742): 5.4 s⁻¹
B12		> 517	
B13		396	kcat of FX activation by FIXa in the Xase complex (FVIIIa, PC/PS vesicles, Ca2+) (Factor X (FX), P00742): 7 s⁻¹
B14		279	
B15	7.2	> 517	
B16	6.2	303	kcat/KM (Factor X (FX), P00742): 3.9e+08 M⁻¹ s⁻¹
B17		> 517	KM (nM); Catalytic activity of FIXa variants (KM) (Factor X (FX), P00742): 77.7 nM; kcat of FX activation by FIXa in the Xase complex (FVIIIa, PC/PS vesicles, Ca2+) (Factor X (FX), P00742): 2.5 s⁻¹
B18		1.6	
B19		1.4	
B20		2.1	
B21		501	KM (nM); Catalytic activity of FIXa variants (KM) (Factor X (FX), P00742): 83.9 nM; kcat of FX activation by FIXa in the Xase complex (FVIIIa, PC/PS vesicles, Ca2+) (Factor X (FX), P00742): 5.8 s⁻¹
B22		> 517	KM (nM); Catalytic activity of FIXa variants (KM) (Factor X (FX), P00742): 72.4 nM; kcat of FX activation by FIXa in the Xase complex (FVIIIa, PC/PS vesicles, Ca2+) (Factor X (FX), P00742): 3.8 s⁻¹
B23	4.1	129	kcat/KM (Factor X (FX), P00742): 1.5e+08 M⁻¹ s⁻¹
B24	9.7	> 517	
B25	3.8	78.3	
B26	5.8	418	
B27	6.5	> 517	kcat/KM (Factor X (FX), P00742): 1.9e+08 M⁻¹ s⁻¹
B28		> 517	
B29	4.3	200	kcat/KM (Factor X (FX), P00742): 3.3e+08 M⁻¹ s⁻¹
B30	7.9	> 517	kcat/KM (Factor X (FX), P00742): 1.9e+08 M⁻¹ s⁻¹
